From patent US20240131162A1 (MacroGenics, published 2024) come the findings set out here.

One test concerns the target T1, HER-2 (human, UniProt P04626 23-652, limits assumed).
T1 construct: also called HER2/neu; erbB-2
As to the kind of experiment: SPR (BIAcore), HER-2 immobilised, antibody as analyte. On the procedure: The kinetic parameters of the binding of eluted and purified antibodies were analyzed using a BIACORE® assay (BIAcore instrument 1000, BIAcore Inc., Piscataway, N.J.) and associated software. HER-2 was immobilized on one of the four flow cells (flow cell 2) of a sensor chip surface through amine coupling chemistry (by modification of carboxymethyl groups with mixture of NHS/EDC) such that about 1000 response units (RU) of receptor was immobilized on the surface. Following this, the unreacted active esters were “capped off” with an injection of 1 M Et-NH2.

The target of a further test is human CD16A (FcγRIII-A) (human, UniProt P08637 17-208, limits assumed). As to the kind of experiment: method not stated.
Chain of human CD16A (FcγRIII-A) (P08637 17-208 limits assumed): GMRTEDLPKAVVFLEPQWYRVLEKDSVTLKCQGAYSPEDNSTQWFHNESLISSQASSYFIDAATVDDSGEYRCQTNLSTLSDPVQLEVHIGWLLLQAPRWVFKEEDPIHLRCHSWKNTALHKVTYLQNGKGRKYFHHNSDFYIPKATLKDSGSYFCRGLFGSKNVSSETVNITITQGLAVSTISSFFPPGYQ

B1: ch4D5-wild-type Fc (antibody, human IgG1, kappa)
heavy: not shown
light: DIVMTQSHKFMSTSVGDRVSITCKASQDVNTAVAWYQQKPGHSPKLLIYSASFRYTGVPDRFTGSRSGTDFTFTISSVQAEDLAVYYCQQHYTTPPTFGGGTKVEIKRTVAAPSVFIFPPSDEQLKSGTASVVCLLNNFYPREAKVQWKVDNALQSGNSQESVTEQDSKDSTYSLSSTLTLSKADYEKHKVYACEVTHQGLSSPVTKSFNRGEC
notes: Chimeric 4D5; also called ch4D5-FcWT; WT
A word on the koff: it is a measure of how fast the partners let go of each other. A higher koff goes with fast dissociation. As a reminder, the kon is the second-order rate constant of association. In the test with HER-2, B1 yielded a koff of approximately 3.2e-07 s⁻¹ and a kon of 170000 M⁻¹ s⁻¹.

B2: ch4D5-FcMT1 (antibody, human IgG1, kappa)
heavy: QVQLQQSGPELVKPGASLKLSCTASGFNIKDTYIHWVKQRPEQGLEWIGRIYPTNGYTRYDPKFQDKATITADTSSNTAYLQVSRLTSEDTAVYYCSRWGGDGFYAMDYWGQGASVTVSSASTKGPSVFPLAPSSKSTSGGTAALGCLVKDYFPEPVTVSWNSGALTSGVHTFPAVLQSSGLYSLSSVVTVPSSSLGTQTYICNVNHKPSNTKVDKRVEPKSCDKTHTCPPCPAPELLGGPSVFLLPPKPKDTLMISRTPEVTCVVVDVSHEDPEVKFNWYVDGVEVHNAKTKPPEEQYNSTLRVVSILTVLHQDWLNGKEYKCKVSNKALPAPIEKTISKAKGQPREPQVYTLPPSRDELTKNQVSLTCLVKGFYPSDIAVEWESNGQPENNYKTTPLVLDSDGSFFLYSKLTVDKSRWQQGNVFSCSVMHEALHNHYTQKSLSLSPGK
light: DIVMTQSHKFMSTSVGDRVSITCKASQDVNTAVAWYQQKPGHSPKLLIYSASFRYTGVPDRFTGSRSGTDFTFTISSVQAEDLAVYYCQQHYTTPPTFGGGTKVEIKRTVAAPSVFIFPPSDEQLKSGTASVVCLLNNFYPREAKVQWKVDNALQSGNSQESVTEQDSKDSTYSLSSTLTLSKADYEKHKVYACEVTHQGLSSPVTKSFNRGEC
For B2, the “fold increase in binding” value with human CD16A (FcγRIII-A) came out at 10 fold.
